Assays:
[1] = system: MS2 coat protein; assay: apparent KD of MS2 coat protein, switch OFF state (with FMN for OFF switches, without FMN for ON switches); designed switch direction (-1 OFF switch, 1 ON switch): 1; higher = weaker reporter binding; details: FMN input: 0 or 200 uM; Eterna round: R93 (includes R88 designs)
In short: (§1)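 Values are apparent KD, taken as the median for each design of fits to normalised binding curves from individual clusters. The designed RNA switches were transcribed on-chip from Illumina sequencing clusters and exposed to SNAP-549-labelled MS2 coat protein at twofold increasing amounts from 0.7 or 1.5 nM to 3 µM. Titration used 100 mM Tris-HCl pH 7.5, 80 mM KCl and 4 mM MgCl2, without or with constant ligand.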

[2] = system: MS2 coat protein; assay: apparent KD of MS2 coat protein, switch ON state; designed switch direction (-1 OFF switch, 1 ON switch): 1; higher = weaker reporter binding; details: FMN input: 0 or 200 uM; Eterna round: R93 (includes R88 designs)
In short: as §1

Sequence | apparent KD of MS2 coat protein [1] | apparent KD of MS2 coat protein [2]
AAAAAAAAAAAUAAGGAUAUGUGAUCGGUGACAUGAGGAUCACCCAUGUAAGGCCUCCGGGACGGGCAGAAGGUAUAAAAAAAAA [Same State2-III] | 607 nM | 491 nM
AAGAAACAUGAGGAUCACCCAUGUGAGAAUAUGGGAGGAUAUACAAGGACGUAAGUCAAGGUAGAAGGCCUAAGAA [Mat - Same State 1 - Meechl mod - D139] | 200 nM | 25.8 nM
AACAUACAUGAGGAUCACCCAUGUUCCGGCAGGUCAGGAUAUUUAUCGAAUGAGUUCUAGAAAGAAGGGACAUAAA [JR_SS001_Sub008] | 62.7 nM | 45.8 nM
AAUCCAACUAGUCAGGAUAUCAGGCGUAAGACAUGAGGAUCACCCAUGUCCUUAGUACAAGUAACUGAGAAGGGACAGGGCGACC [JR_SS002_Sub410] | 39.5 nM | 74.9 nM
AAAAAAUAAAAAAAGGAUAUACUGCUAGAAACAUGAGGAUCACCCAUGUAACUAGCAGUAAUAAAAAAGAAGGAAAAAUAAAAAA [SS2: MS2 35] | 3.61 nM | 1.15 nM
AGAAAUAAAACACAGGAUAUCCAAAAGAAAACAUGAGGAUCACCCAUGUAAAGAAAAUAAAAAUGGGAGAAGGGUGAAAAUAAGA [Mat - Same State 2 - JL mod - D15] | 31.5 nM | 19.9 nM
AUAAAUAAAAUCAAGGAUAUCCAAAAAAAAACAUGAGGAUCACCCAUGUAAAAGAAAAUAAAAUGGGAGAAGGUGAAAAAUAAAU [SS2 M 6] | 68 nM | 39.4 nM
AUAAAUAAAAGAGAGGAUAUCCAAAAUAAAACAUGAGGAUCACCCAUGUAAAAUAAAAUAAAAUGGGAGAAGGCUCAAAAUAAAU [SS2 M 2] | 72.1 nM | 21.6 nM
AUAAAAGAAGCGAAGGAUAUCCAAAAUCCAACAUGAGGAUCACCCAUGUAAAGAAAGAAAAAAUGGGAGAAGGUCGCAAAGAAUA [73%, More Fisker Same State 2, D3, 11] | 31.3 nM | 13.5 nM
GUGUAAAGAAUCGAGGAUAUCCUGAAAAGCACAUGAGGAUCACCCAUGUAAGAGCGAGAAUAAUGGGAGAAGGCGAGUUAUCGGU [JR_SS002_Sub1711] | 33 nM | 20.1 nM
AAUAAAAAUAGUCAGGAUAUGAGAAAUAAGACAUGAGGAUCACCCAUGUAAUAAGUAAAAGUAAAUUAGAAGGGACAGGGUGAAA [JR_SS002_Sub019] | 167 nM | 200 nM
GAAAAACAUGAGGAUCACCCAUGUGAGAAUAUGGGAGGAUAUUCAAAGACGAAAGUCAAAGAAGAAGGCCUAAAAG [Mat - Same State 1 - Eli mod - 37] | 276 nM | 31.2 nM
AAAAAACAUGAGGAUCACCCAUGUGAGAACAUGGGAGGAUAUACAAGGAUGAGAGUCAAGGUAGAAGGCCUAAGAA [Garnet 70] | 48.5 nM | 76.1 nM
AAAAAACAUGAGGAUCACCCAUGUAAAAAAAUCGCAGGAUAUAAGGUCGCGAAAGCGACCUUAGAAGGGCGAUCCU [Louisiana 1 - Jieux - Same State 1] | 75.8 nM | 46.3 nM
CAGAGACAUGAGGAUCACCCAUGUAGGAUUAUGGGAGGAUAUACAAAGACGAGAGUCAGAGUAGAAGGCCUAGGCC [salish99-ss1-145] | 43.2 nM | 29.7 nM
CGAAGACAUGAGGAUCACCCAUGUCGUCGUAACAGAGGAUAUGGGAACGCCAAGGGCGCAUCAGAAGGCUGAAAAC [Gediaton] | 31 nM | 16.2 nM
AAGAAACAUGAGGAUCACCCAUGUGAUAAUAUGGGAGGAUAUACAAAGACGAAAGACGAAGUAGAAGGCCUAAGAA [Garnet 47] | 114 nM | 56.3 nM
AAAAGACAUGAGGAUCACCCAUGUUAAGACGUAGGAGGAUAUGUCGUGAAAAAAGACUUGACAGAAGGCCUGUGUC [SS1 - 38] | 20.4 nM | 16 nM
AAUAAUUAUACGAAGGAUAUCGGUAAUUAGACAUGAGGAUCACCCAUGUUAUAUGGUUAAAUAUUCGAGAAGGUCGAGGGUGAAA [JR_SS002_Sub505] | 32.7 nM | 36.1 nM
AAAUAACAUGCGCAGGAUAUGAGACCGAUAACAUGAGGAUCACCCAUGUUAAGGAAGAAAUAAAAUCAGAAGGGUGGGUGGACCU [Aatteri] | 26.6 nM | 25.7 nM
AAUAAUUAUACGAAGGAUAUCGGUAAUUAGACAUGAGGAUCACCCAUGUAAUAUGGUUAAAUAUUCGAGAAGGUCGAGGGUGAAA [JR_SS002_Sub504] | 29.4 nM | 336 nM
